Experiment [1] addresses human recombinant CD64 (R&D Systems) (human) (UniProt P12314). Description: SPR (Biacore T200); construct captured on Protein A, soluble CD64 as analyte. (In general: Surface plasmon resonance follows binding to a sensor surface in real time, without labels.)
The next experiment has as its target FcγRIIaH131 (human) (UniProt P12318). Description: TR-FRET competition with labeled competitor antibody on cells bearing the receptor. (In general: Time-resolved FRET reads energy transfer from a long-lived donor to a nearby acceptor.)
The target in another experiment is FcγRIIIaV158 (UniProt P08637). The description is as above.
Sequence of FcγRIIIaV158 (P08637 17-254 F176V limits assumed): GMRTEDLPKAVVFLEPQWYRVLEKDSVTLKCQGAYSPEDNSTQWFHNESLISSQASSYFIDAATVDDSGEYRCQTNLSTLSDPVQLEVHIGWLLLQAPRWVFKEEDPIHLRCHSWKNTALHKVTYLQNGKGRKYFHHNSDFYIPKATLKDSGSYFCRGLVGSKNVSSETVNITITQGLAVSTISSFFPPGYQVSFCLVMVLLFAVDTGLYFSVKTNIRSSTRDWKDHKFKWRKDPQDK
Another experiment concerns the target FcγRIIb (UniProt P31994). The description is as above.

Sequence of FcγRIIaH131 (human) (P12318 34-317): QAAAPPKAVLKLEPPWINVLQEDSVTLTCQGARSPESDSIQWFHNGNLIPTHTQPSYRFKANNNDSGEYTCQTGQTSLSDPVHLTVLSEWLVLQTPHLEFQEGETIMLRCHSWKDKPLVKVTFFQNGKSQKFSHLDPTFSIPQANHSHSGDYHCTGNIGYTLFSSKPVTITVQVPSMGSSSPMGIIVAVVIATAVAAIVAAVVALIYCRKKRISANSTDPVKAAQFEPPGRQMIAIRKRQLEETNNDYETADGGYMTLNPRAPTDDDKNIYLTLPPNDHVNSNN
Sequence of FcγRIIb (P31994 43-310 limits assumed): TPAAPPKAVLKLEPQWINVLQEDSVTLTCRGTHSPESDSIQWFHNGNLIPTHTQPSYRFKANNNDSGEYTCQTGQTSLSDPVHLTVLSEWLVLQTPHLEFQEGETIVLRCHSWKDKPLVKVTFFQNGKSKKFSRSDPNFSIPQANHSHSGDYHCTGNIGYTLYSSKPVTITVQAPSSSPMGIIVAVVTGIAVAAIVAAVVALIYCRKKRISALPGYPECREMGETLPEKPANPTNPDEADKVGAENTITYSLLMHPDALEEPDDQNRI
Sequence of human recombinant CD64 (R&D Systems) (human) (P12314 16-288 limits assumed): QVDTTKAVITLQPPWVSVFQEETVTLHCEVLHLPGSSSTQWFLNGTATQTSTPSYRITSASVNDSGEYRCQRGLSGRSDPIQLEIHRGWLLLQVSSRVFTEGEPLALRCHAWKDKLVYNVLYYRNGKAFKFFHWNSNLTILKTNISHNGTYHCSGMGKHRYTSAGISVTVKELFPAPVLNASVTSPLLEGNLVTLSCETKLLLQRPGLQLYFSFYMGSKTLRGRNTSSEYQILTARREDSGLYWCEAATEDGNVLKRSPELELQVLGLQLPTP

For “anti-CD20 monoclonal antibody (CDRs from Gazyva (obinutuzumab))”, the CD64 Valency by SPR in experiment [1] was 1.5. In addition, the IC50 (in general, the midpoint of a concentration-inhibition curve) is 1.27 µM in the experiment with FcγRIIaH131 (human), 0.428 µM in the experiment with FcγRIIIaV158 and 3.29 µM with FcγRIIb.

The values above are taken from US20250346676A1.
